Consider seven molecules from patent publication US20080311575A1, “Modulation of Muci-Dependent Anti-Estrogen Resistance” (priority 2005, published 2008).

The test system of one assay is breast cancer cells. The assay is described as follows: Induction of apoptosis in breast cancer cells. The assay is classed as cell-based, human. To be noted: both cell types (MCF-7, ZR-75-1); data not shown.
A further assay relates to breast cancer. To be noted: patients with high ER and PgR expression levels; cited from earlier work.
In the next assay the test system is ERα. The assay is described as follows: Immunoblot of ERα levels in MCF-7 and ZR-75-1 cells. It counts as cell-based, human. To be noted: MG132 5 mM for 24 h. How it is done:
FIGS. 5A-D. MUC1 stabilizes ERα. FIG. 5A. Lysates from the indicated MCF-7 (left) and ZR-75-1 (right) cells were immunoblotted with anti-ERa, anti-MUC1-C and anti-β-actin. WT: wild-type cells. FIGS. 5B and C. The indicated MCF-7 (left) and ZR-75-1 (right) cells were treated with 5 mM MG132 for 24 h. Lysates were subjected to immunoblotting with the indicated antibodies FIG. 5B. […] Lysates were immunoprecipitated with anti-ERα and the precipitates were analyzed by SDS-PAGE and autoradiography. A higher amount of MCF-7/MUC1siRNA cell lysate was used for immunoprecipitation to increase the ERα signals. Lysates not subjected to immunoprecipitation were immunoblotted with anti-β-actin. Intensity of the signals as determined by densitometric scanning is presented as the percentage of ERα remaining over time relative to control at 0 h.
Coimmunoprecipitation and immunoblotting.
For orientation: In western blotting, separated proteins are transferred to a membrane and probed.

For assay [1], the system named is ERα-mediated transcription (ERE-tk-Luc). The experiment in a line: ERE-tk-Luc reporter assay in MCF-7/CsiRNA and MCF-7/MUC1siRNA-A cells. The assay is classed as cell-based, human. The settings on record: MCF-7/CsiRNA versus MCF-7/MUC1siRNA-A cells, 100 nM E2 for 24 h. (A reporter such as luciferase makes a cellular process visible.)
For assay [2], the target named is T1, estrogen receptor α (ERα), expressed in cells (human, UniProt P03372 1-595).
T1 sequence: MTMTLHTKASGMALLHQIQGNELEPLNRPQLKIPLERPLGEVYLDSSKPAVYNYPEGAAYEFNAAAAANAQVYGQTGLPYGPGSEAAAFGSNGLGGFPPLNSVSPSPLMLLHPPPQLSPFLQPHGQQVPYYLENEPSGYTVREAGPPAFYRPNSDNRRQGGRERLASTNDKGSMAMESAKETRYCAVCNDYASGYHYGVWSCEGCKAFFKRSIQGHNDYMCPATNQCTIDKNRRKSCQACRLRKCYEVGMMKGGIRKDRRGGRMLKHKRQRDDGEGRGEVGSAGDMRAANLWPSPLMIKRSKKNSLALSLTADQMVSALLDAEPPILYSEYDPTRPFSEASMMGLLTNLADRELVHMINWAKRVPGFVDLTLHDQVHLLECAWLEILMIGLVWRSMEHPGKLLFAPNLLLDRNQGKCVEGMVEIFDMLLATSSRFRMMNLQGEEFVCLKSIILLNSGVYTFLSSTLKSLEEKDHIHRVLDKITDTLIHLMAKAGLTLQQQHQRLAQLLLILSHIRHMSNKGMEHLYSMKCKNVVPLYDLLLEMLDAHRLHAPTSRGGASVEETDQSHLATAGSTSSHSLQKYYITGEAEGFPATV
The assay is described as follows: cell-based or functional assay.

The target of assay [3] is T2, proliferating cell nuclear antigen (PCNA) (human, UniProt P12004 1-261).
T2 construct: Precipitated from lysates with anti-PCNA as a control
The assay is described as follows: coimmunoprecipitation: anti-PCNA precipitates of cell lysates, immunoblot with anti-MUC1-C.

Assay [4] concerns the target T3, 35S-labeled full-length ERα(1-595) (Homo sapiens (Human), UniProt P03372 1-595, 35S-labeled in in vitro transcription/translation (TNT) reactions).
T3 construct: In vitro translated from pcDNA3.1-ERα; also called 35S-labeled ERα
T3 sequence: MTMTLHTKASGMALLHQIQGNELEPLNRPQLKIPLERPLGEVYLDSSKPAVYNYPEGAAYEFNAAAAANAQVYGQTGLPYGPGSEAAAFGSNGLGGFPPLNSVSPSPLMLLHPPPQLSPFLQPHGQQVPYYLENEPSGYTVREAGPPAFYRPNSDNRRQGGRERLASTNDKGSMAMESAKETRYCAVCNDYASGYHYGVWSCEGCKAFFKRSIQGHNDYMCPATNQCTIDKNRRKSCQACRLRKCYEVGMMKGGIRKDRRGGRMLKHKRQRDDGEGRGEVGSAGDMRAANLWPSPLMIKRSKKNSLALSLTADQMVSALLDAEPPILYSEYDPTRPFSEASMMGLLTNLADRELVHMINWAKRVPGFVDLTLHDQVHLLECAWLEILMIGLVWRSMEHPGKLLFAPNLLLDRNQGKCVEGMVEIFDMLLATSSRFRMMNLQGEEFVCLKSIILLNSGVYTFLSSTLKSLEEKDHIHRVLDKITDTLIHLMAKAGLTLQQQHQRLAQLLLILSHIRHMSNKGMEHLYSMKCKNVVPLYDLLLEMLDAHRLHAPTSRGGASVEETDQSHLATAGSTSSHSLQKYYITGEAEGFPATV
The assay is described as follows: GST pull-down on glutathione beads, 35S-labeled full-length ERα, phosphoimaging. How it is done:
To localize the region within MUC1-CD that interacts with ERα, ³⁵S-labeled full length ERα was incubated with deletion mutants of MUC1-CD.

The target of assay [5] is T4, 35S-labeled ERα(Δ186-281) (Homo sapiens (Human), UniProt P03372 1-595, 35S-labeled in in vitro transcription/translation (TNT) reactions).
T4 construct: Internal deletion of residues 186-281, devoid of the DBD
T4 sequence: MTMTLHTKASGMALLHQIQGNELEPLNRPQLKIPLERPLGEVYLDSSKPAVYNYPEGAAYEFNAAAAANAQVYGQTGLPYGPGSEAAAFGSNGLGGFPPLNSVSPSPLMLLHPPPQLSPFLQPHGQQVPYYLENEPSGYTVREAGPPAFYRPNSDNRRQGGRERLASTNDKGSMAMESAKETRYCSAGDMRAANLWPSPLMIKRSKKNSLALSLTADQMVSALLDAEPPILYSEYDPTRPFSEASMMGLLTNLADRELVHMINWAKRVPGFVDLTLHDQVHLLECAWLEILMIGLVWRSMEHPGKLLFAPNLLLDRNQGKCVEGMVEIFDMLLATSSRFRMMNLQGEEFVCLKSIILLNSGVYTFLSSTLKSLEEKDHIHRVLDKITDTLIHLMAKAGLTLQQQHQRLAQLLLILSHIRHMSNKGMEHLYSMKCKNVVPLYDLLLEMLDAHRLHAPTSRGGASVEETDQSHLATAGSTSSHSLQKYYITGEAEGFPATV
The experiment in a line: GST pull-down on glutathione beads, 35S-labeled ERα deletion mutant, phosphoimaging.

The target in the next assay is T5, 35S-labeled ERα(1-185) (Homo sapiens (Human), UniProt P03372 1-185, 35S-labeled in in vitro transcription/translation (TNT) reactions).
T5 construct: Deletion mutant that contains the AF1 domain
T5 sequence: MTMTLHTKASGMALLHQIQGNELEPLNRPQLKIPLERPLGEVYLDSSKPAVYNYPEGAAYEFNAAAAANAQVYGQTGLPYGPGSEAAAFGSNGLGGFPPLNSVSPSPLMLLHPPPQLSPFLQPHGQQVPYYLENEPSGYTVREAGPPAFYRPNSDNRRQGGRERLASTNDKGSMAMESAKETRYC
The assay is described as above.

Another assay has as its target T6, 35S-labeled ERα(282-595) (Homo sapiens (Human), UniProt P03372 282-595, 35S-labeled in in vitro transcription/translation (TNT) reactions).
T6 sequence: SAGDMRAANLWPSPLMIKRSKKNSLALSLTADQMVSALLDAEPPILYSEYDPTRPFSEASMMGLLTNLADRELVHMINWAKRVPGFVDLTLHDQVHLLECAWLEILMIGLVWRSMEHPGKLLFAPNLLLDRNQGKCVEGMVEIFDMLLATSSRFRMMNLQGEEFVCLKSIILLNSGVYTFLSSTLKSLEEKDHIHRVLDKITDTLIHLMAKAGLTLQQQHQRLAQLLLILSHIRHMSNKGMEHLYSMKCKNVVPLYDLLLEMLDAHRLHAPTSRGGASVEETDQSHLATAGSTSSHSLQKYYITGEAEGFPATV
Described as above.

Residues, ends and D or L forms follow the SMILES beside them. *: point of attachment. Cbz = O=C(OCc1ccccc1)*

T2 sequence (P12004 whole entry): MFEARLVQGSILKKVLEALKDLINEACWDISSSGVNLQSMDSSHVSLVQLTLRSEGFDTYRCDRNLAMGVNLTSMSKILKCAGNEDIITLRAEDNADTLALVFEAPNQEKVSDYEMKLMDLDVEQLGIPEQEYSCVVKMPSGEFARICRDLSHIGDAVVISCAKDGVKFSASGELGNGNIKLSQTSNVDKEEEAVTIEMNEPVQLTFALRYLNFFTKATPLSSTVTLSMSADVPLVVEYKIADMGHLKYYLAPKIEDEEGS

As to `CC/C(=C(\c1ccccc1)c1ccc(OCCN(C)C)cc1)c1ccccc1` [TAM, tamoxifen], the induction of apoptosis in the assay on breast cancer cells is not above 10%. The overall response rate in the assay with breast cancer is listed as not above 70%.
As to `C[C@]12CC[C@@H]3c4ccc(O)cc4C[C@@H](CCCCCCCCC[S+]([O-])CCCC(F)(F)C(F)(F)F)[C@H]3[C@@H]1CC[C@@H]2O` (some centres unmarked) [ICI, ICI 182,780], in the assay with ERα, the “effect on ERα expression (immunoblot)” value is “down-regulation of ERα”.
Still for that read-out and setting: the value for `CC(C)C[C@@H](C=O)NC(=O)[C@H](CC(C)C)NC(=O)[C@H](CC(C)C)NC(=O)OCc1ccccc1` [MG132] (Cbz-Leu-Leu-Leu-aldehyde) was “increases in ERα expression”.
`C[C@]12CC[C@@H]3c4ccc(O)cc4CC[C@H]3[C@@H]1CC[C@@H]2O` [E2, 17β-estradiol]: the “MUC1-dependent activation of ERE-tk-Luc” value in assay [1] was approximately 5 fold.

B1: MUC1 C-terminal subunit (MUC1-C) (other)
chain: SVVVQLTLAFREGTINVHDVETQFNQYKTEAASRYNLTISDVSVSDVPFPFSAQSGAGVPGWGIALLVLVCVLVALAIVYLIALAVCQCRRKNYGQLDIFPARDTYHPMSEYPTYHTHGRYVPPSSTDRSPYEKVSAGNGGSSLSYTNPAVAATSANL
notes: Endogenous ~20-25 kDa MUC1-C in lysates of human breast cancer cells
For the molecule B1, the “MUC1-dependent activation of ERE-tk-Luc (luciferase reporter, MCF-7/CsiRNA against MCF-7/MUC1siRNA-A cells stimulated with E2)” value in [2] was approximately 5 fold. The binding result in assay [3] is recorded as “no binding”.

B2: GST-MUC1-CD with deletion of amino acids 9 to 46 (other, not shown: a dimerising Fc or GST; large carriers; small tags and cut ends)
chain: CQCRRKNYEKVSAGNGGSSLSYTNPAVAATSANL
notes: also called MUC1-CD deletion mutant (amino acids 9 to 46 deleted)
On to B2, for which the binding result in assay [4] is “no binding”.

B3: GST-MUC1-CD(1-72) (other, not shown: a dimerising Fc or GST)
chain: CQCRRKNYGQLDIFPARDTYHPMSEYPTYHTHGRYVPPSSTDRSPYEKVSAGNGGSSLSYTNPAVAATSANL
notes: also called full-length MUC1-CD
B3: the binding result (in [5]; with 35S-labeled ERα(1-185); with 35S-labeled ERα(282-595)) was “no binding” throughout.
